These results are taken from patent US20250049953A1, “TREATMENT AND METHOD FOR INHIBITING LATE NA CURRENT” (THE TRUSTEES OF COLUMBIA UNIVERSITY IN THE CITY OF NEW YORK, priority 2022, published 2025).

For one data set, the system named is HEK293 cells. It is filed as in vitro ADME. Particulars: 10 μM. As to the method: The peptide encoding FixR-cpp was chemically synthesized by Genscript (98% purity) to contain the cell permeating viral TAT sequence in the amino-terminus: […] (SEQ ID NO. 2). The amino terminus of the peptide contained a FITC fluorophore to visualize cell uptake. The peptide was resuspended in DMSO. Flow cytometric assays were performed to quantify FixR cellular uptake in both HEK293 cells and freshly dissociated aMVM. HEK293 cells were cultured in 12 well plates and incubated with different concentrations of FixR-cpp for 2 hours and stained for cell death detection using LIVE/DEAD™ Fixable Far Red Dead Cell Stain Kit (ThermoFisher Scientific, L10120). Similarly, non-TG and IQ/AA^tg freshly dissociated aMVM were incubated with various concentrations of FixR-cpp for 2 hours in Tyrode's solution (138 mM NaCl, 4 mM KCl, 1 mM MgCl2, 10 mM HEPES (pH 7.4 using NaOH), 0.2 mM NaHPO4 5 mM D-glucose, 1 mM CaCl2). For cellular uptake measurements, we utilized an LSR II (BD Biosciences) flow cytometer equipped with 405 nm, 488 nm, and 633 nm lasers for excitation and 18 different emission channels. Forward and side scatter signals were detected and used to gate for single and healthy cells. […] Histograms from the Fluorescein 5(6)-isothiocyanate (FITC) and Allophycocyanin (APC) channels for the single-cell population were obtained and analyzed using FlowJo (version X, FlowJo LLC).

Another data set deals with T1, wild-type NaV1.5 (Homo sapiens, UniProt Q14524).
T1 construct: expressed in transfected cells; host or cells: HEK293 (ATCC CRL1573)
Nature of the data set: Phosphorylation-dependent late Na current, wild-type NaV1.5 co-expressed with PKAcat or CaMKIIT286D in HEK293 cells. The data set is classed as cell-based. The source says: As such, we sought to determine whether “protective” FHF variants may inhibit phosphorylation-dependent INa,L. To maximally upregulate INa,L, we co-expressed wild-type NaV1.5 with either (1) the catalytic Cα subunit of protein kinase A (PKA) or (2) a constitutively-active Ca^2+/CaM dependent kinase II (CaMKIIT286D) mutant in HEK293 cells. This maneuver likely triggers runaway phosphorylation of NaV1.5 and thereby furnishes a baseline to discern any potential FHF-dependent change. As expected, we observed an ˜5 fold increase in INa,L in the presence of the PKA Cα subunit (FIGS. 3D and 3E), and a 3-fold increase with CaMKIIT286D (FIGS. 3E and 11B). […] Encouraged by these findings, we dissected the functional role of this modulation in native cardiomyocytes (FIGS. 3F and 3G).
The human NaV1.5 channel corresponds to clone M77235.1 (GenBank) and is subcloned into pGW 1 vector with HindIII and SaII. To facilitate construction of channelopathic mutations in the channel carboxy-terminus, we introduced silent mutations into NaV1.5 to introduce an NruI cutting site near the channel carboxy-terminus (5329-gtggccacg-5337 into 5329-gtCgcGacg-5337). Subsequently, we used overlap-extension PCR and ligated the PCR product into NaV1.5/pGW1 using NruI and XbaI restriction sites (mutations: E1784K, S1904L, IQ/AA, and Q1909R). […]

T1 sequence (Q14524 whole entry): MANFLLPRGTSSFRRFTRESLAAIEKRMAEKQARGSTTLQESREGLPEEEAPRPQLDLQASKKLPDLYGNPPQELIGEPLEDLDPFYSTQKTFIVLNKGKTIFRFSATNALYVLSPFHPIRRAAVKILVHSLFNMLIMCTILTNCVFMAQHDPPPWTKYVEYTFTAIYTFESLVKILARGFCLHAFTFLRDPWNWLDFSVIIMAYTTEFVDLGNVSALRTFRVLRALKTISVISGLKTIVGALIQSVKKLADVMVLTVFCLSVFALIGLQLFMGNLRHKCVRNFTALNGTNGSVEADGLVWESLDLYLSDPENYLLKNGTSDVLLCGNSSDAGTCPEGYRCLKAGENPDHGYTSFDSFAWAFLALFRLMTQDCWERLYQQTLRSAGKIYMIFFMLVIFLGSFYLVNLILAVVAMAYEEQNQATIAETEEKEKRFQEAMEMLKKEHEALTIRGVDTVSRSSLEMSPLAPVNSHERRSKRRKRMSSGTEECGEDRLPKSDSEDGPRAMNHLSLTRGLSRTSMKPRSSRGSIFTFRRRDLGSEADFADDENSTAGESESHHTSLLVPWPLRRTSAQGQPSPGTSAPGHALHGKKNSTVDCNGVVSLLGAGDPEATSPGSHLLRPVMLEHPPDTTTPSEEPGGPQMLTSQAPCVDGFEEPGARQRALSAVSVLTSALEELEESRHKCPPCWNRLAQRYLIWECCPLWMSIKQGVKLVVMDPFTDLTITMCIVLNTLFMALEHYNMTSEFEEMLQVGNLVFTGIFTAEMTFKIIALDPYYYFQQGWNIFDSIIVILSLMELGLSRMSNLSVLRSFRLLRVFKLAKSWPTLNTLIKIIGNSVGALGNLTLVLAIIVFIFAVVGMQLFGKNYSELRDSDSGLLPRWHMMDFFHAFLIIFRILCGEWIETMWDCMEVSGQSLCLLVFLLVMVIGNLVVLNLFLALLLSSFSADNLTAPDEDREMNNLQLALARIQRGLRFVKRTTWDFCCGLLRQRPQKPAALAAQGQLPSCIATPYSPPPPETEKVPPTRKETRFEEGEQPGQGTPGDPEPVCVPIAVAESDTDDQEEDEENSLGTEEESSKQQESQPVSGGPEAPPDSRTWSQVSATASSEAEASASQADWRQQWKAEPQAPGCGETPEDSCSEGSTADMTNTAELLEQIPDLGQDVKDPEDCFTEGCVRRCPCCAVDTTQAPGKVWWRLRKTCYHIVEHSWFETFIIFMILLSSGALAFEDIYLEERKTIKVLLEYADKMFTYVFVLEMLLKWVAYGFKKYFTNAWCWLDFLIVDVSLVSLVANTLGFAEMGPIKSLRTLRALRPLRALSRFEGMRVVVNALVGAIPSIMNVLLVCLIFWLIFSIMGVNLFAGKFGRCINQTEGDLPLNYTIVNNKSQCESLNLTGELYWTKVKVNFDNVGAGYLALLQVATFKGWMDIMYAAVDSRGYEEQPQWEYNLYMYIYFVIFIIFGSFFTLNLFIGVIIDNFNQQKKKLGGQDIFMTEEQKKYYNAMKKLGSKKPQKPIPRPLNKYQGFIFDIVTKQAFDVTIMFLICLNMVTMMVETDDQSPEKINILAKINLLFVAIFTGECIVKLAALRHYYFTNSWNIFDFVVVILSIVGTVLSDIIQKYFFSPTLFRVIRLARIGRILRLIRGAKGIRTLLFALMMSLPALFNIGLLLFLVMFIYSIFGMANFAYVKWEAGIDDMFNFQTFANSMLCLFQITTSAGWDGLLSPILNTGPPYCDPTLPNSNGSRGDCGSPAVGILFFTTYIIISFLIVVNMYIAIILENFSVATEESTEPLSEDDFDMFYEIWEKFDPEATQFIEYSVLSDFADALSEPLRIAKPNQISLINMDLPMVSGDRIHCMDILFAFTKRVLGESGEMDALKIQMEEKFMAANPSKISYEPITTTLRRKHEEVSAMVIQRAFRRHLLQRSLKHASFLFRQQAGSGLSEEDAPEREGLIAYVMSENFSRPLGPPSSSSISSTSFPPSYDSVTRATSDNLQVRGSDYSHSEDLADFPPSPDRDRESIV

Take “FixR-cpp: FixR fused to HIV-1 TAT transduction domain, YGRKKRRQRRRAAAIASSLIRQKRQARESNSERVSASKRRSSPSKG (SEQ ID NO: 2)”: the “cells showing increased fluorescence compared to background” value in the data set on HEK293 cells (2 hours of incubation, FITC-tagged) is approximately 90%. The “enhancement in fluorescence intensity” value with HEK293 cells (2 hours, flow-cytometry) is on record as approximately 100 fold.

Regarding “FixR: minimal 39-amino-acid FHF1A amino-terminal effector domain, MAAAIASSLIRQKRQARESNSDRVSASKRRSSPSKDGRS (SEQ ID NO: 4), expressed as peptide”, the “change in phosphorylation-dependent INa,L” value with wild-type NaV1.5 (INa,L upregulated by CaMKIIT286D) and with wild-type NaV1.5 (INa,L upregulated by PKA catalytic subunit (PKAcat)) was “reduces INa,L” in each case.
